Molecular target: T1, Rlip (RALBP1, RLIP76), endogenous protein of mouse embryonic fibroblasts and mouse liver (mouse, UniProt Q62172 2-648)
T1 construct: Endogenous protein, detected with a rabbit monoclonal anti-Rlip antibody from Abcam
T1 sequence (looked up): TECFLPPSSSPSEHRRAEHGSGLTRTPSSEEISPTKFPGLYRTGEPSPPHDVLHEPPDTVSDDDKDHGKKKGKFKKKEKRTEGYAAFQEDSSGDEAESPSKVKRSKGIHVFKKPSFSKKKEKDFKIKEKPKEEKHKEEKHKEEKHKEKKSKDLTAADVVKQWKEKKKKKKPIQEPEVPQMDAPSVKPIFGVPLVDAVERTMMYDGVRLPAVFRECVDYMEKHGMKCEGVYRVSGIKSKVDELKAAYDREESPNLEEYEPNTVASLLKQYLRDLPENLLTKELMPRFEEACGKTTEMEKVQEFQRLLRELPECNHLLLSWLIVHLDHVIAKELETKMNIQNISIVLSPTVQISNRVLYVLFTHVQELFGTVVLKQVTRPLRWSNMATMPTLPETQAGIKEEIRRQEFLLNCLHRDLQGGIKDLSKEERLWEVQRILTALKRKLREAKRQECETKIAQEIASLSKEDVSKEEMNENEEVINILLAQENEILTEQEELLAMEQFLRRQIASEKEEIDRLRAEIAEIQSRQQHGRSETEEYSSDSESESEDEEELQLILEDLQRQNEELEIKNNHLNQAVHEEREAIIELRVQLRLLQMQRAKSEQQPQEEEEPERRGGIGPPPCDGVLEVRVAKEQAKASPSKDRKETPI
Assay: co-immunoprecipitation from whole-cell homogenates of wt, p53+/- and p53-/- MEFs
Description: Binding interactions of HSF1, Rlip and p53 in wt, p53^{-/-} MEFs without or with Rlip depletion using R508 were studied by co-immunoprecipitation using protein A/G PLUS-Agarose immunoprecipitation reagent sc-2003 from Santa Cruz Biotechnology (Columbus, Ohio) according to the manufacture's protocol using whole-cell homogenates of wild-type, p53^{-/-} or p53^{+/-} MEFs. Primary anti-HSF1 rabbit monoclonal antibody (D3L8I) and anti-p53 mouse monoclonal antibody was from Cell Signaling Technology (Danvers, Mass.), and rabbit monoclonal anti-Rlip antibody was from Abcam (Cambridge, Mass.). The specificity of primary antibodies was tested using MEFs from either p53^{-/-} or Rlip^{-/-} MEFs. The corresponding probes of anti-rabbit PLUS and anti-mouse MINUS were provided in the kit and used per the manufacturer's instructions. wt, p53^{-/-} and […]. […] Slides were visualized by fluorescence microscopy using an Olympus BX50 microscope, and photomicrographs were taken using a 40× objective.
The 4-hydroxynonenal (4HNE) and8-OH-deoxyguanosine (8OHdG) levels were measured in liver homogenate using Oxiselect kits from Cell Biolabs, San Diego, Calif. by procedures described in Methods and the results are shown in FIG. 2A and FIG. 2B, respectively. […]

binding result: binds
B1: p53 (TP53), endogenous protein of mouse embryonic fibroblasts and mouse liver (other, UniProt P02340 1-390, looked up)
chain: MTAMEESQSDISLELPLSQETFSGLWKLLPPEDILPSPHCMDDLLLPQDVEEFFEGPSEALRVSGAPAAQDPVTETPGPVAPAPATPWPLSSFVPSQKTYQGNYGFHLGFLQSGTAKSVMCTYSPPLNKLFCQLAKTCPVQLWVSATPPAGSRVRAMAIYKKSQHMTEVVRRCPHHERCSDGDGLAPPQHLIRVEGNLYPEYLEDRQTFRHSVVVPYEPPEAGSEYTTIHYKYMCNSSCMGGMNRRPILTIITLEDSSGNLLGRDSFEVRVCACPGRDRRTEEENFRKKEVLCPELPPGSAKRALPTCTSASPPQKKKPLDGEYFTLKIRGRKRFEMFRELNEALELKDAHATEESGDSRAHSSYLKTKKGQSTSRHKKTMVKKVGPDSD
notes: Endogenous protein, detected with a mouse monoclonal anti-p53 antibody from Cell Signaling Technology

— US20190062727A1 (University of Texas, published 2019)
